This note sets out measurements from paper PMC3575474.

Data set [1] has as its system Ku70/80 heterodimer (paper assigns Ku70 XRCC5, Ku80 XRCC6). The data set can be described thus: EMSA. To be noted: Invitrogen non-radioactive EMSA kit (SYBR), 25 min at 25 C (stated for nuclear extract), 2.2-2.5% agarose; buffer, salt and pH not given. (In general: Mobility shift assays separate free from complexed probe on a gel.)
In the next data set the test system is Nucleolin. The data set can be described thus: EMSA. The following applies: Invitrogen non-radioactive EMSA kit (SYBR), 25 min at 25 C (stated for nuclear extract), 2.2-2.5% agarose; buffer, salt and pH not given.

IFIH1 rs13023380 A allele PCR product: the binding signal (fraction of G allele binding) (in data set [1]; with Nucleolin) was 0.5 throughout.
